Data reported in article PMC5656893, “Regioselective para‐Carboxylation of Catechols with a Prenylated Flavin Dependent Decarboxylase” (Angewandte Chemie (International Ed. in English), 2017).

What was measured:
[1] = substrate: O=C(O)c1ccc(O)c(O)c1; experiment: decarboxylation kinetics, purified enzyme reconstituted in vitro with prFMN; assay type: biochemical, Klebsiella pneumoniae; settings: apparent; prFMN iminium cofactor, after oxidative maturation
[2] = substrate: O=C(O)c1ccc(O)c(O)c1; experiment: as above; assay type: biochemical, Enterobacter cloacae; settings: apparent; prFMN iminium cofactor, after oxidative maturation

Row | Protein | Km [1] [µM] | kcat [1] | Km [2] [µM] | kcat [2]
1 | KpAroY (Klebsiella pneumoniae subsp. pneumoniae MGH 78578) (protein, recombinant, purified from E. coli (UbiX co-expressed), reconstituted in vitro with prFMN and oxidised; UbiD family; about 495 residues) MTAPIQDLRDAIALLQQHDNQYLETDHPVDPNAELAGVYRHIGAGGTVKRPTRIGPAMMFNNIKGYPHSRILVGMHASRQRAALLLGCEASQLALEVGKAVKKPVAPVVVPASSAPCQEQIFLADDPDFDLRTLLPAPTNTPIDAGPFFCLGLALASDPDDASLTDVTIHRLCVQGRDELSMFLAAGRHIEVFRQKAEAAGKPLPITINMGLDPAIYIGACFEAPTTPFGYNELGVAGALRQRPVELVQGVSVPEKAIARAEIVIEGELLPGVRVREDQHTNSGHAMPEFPGYCGGANPSLPVIKVKAVTMRNNAILQTLVGPGEEHTTLAGLPTEASIWNAVEAAIPGFLQNVYAHTAGGGKFLGILQVKKRQPADEGRQGQAALLALATYSELKNIILVDEDVDIFDSDDILWAMTTRMQGDVSITTIPGIRGHQLDPSQTPEYSPSIRGNGISCKTIFDCTVPWALKSHFERAPFADVDPRPFAPEYFARLEKNQGSAK | 96 ± 23 | 4.7±0.4 s^-1 (printed as v max ^app) | – | –
2 | EcAroY (Enterobacter cloacae) (protein, recombinant, purified from E. coli (UbiX co-expressed), reconstituted in vitro with prFMN and oxidised; UbiD family; homohexamer; about 495 residues) MQNPINDLRSAIALLQRHPGHYIETDHPVDPNAELAGVYRHIGAGGTVKRPTRTGPAMMFNSVKGYPGSRILVGMHASRERAALLLGCVPSKLAQHVGQAVKNPVAPVVVPASQAPCQEQVFYADDPDFDLRKLLPAPTNTPIDAGPFFCLGLVLASDPEDTSLTDVTIHRLCVQERDELSMFLAAGRHIEVFRKKAEAAGKPLPVTINMGLDPAIYIGACFEAPTTPFGYNELGVAGALRQQPVELVQGVAVKEKAIARAEIIIEGELLPGVRVREDQHTNTGHAMPEFPGYCGEANPSLPVIKVKAVTMRNHAILQTLVGPGEEHTTLAGLPTEASIRNAVEEAIPGFLQNVYAHTAGGGKFLGILQVKKRQPSDEGRQGQAALIALATYSELKNIILVDEDVDIFDSDDILWAMTTRMQGDVSITTLPGIRGHQLDPSQSPDYSTSIRGNGISCKTIFDCTVPWALKARFERAPFMEVDPTPWAPELFSDKK | – | – | 61 ± 17 | 4.6±0.4 s^-1 (printed as v max ^app)
